± gives the uncertainty stated by the source.
Experiment: amyloid nucleation score (Sup35N fusion, yeast selection) (log enrichment); library NNK3; higher = more nucleation; inactive = no reads after selection
In short: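 The nucleation score, computed with DiMSum, is the log enrichment of output over input reads, centred on the mode score of non-aggregating sequences. Sequences with under 100 input reads were dropped. Reads were generated by Illumina sequencing of plasmid inserts from psi-negative yeast with Sup35N fused to peptides of 20 random codons, induced with 100 μM copper sulfate for 24 hours and grown 7 days at 30°C on medium lacking adenine and uracil.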

Amyloid nucleation score, 1.93 ± 0.1:
GFTLHHLTACVIGTCVFFSP

Amyloid nucleation score, 2.9 ± 0.06:
FVNVKFQTLCNYIWCTSPYE

Amyloid nucleation score, -0.237 ± 0.69:
GLYMKVKFGYTEWQDFGQSS

Amyloid nucleation score, -0.702 ± 1.3:
GKLFWFCFRWRYLLTKMVQN

Amyloid nucleation score, 1.09 ± 0.13:
FYSLNSFSFYASRVITDNRV

Amyloid nucleation score, 1.65 ± 0.085:
GKKDRVRQTYFYMNSYIHW

Amyloid nucleation score, -0.186 ± 0.55:
GGKQCTPNDTM

Amyloid nucleation score, -0.241 ± 1.1:
GIDDDCARHIYWGRFLIGSC

Amyloid nucleation score, 1.44 ± 0.14:
GKYSYLDIPTTIVYMFIH

Amyloid nucleation score, 1.31 ± 0.089:
FVASHLVVAKGVKASVRKFY

Amyloid nucleation score, 0.802 ± 0.13:
GGSFKVDNPKVTRAWISFFS

Amyloid nucleation score, 1.93 ± 0.08:
FYFDARRSITLSNSNVVKLW

Amyloid nucleation score, 0.682 ± 0.2:
FRVKFIMCRHLSPNV

Amyloid nucleation score, -0.533 ± 1.9:
FVSRGKLLPNAPGFMWFLLR

Amyloid nucleation score, -0.456 ± 0.74:
FTNNCYHLAMY

Amyloid nucleation score, -0.124 ± 0.52:
FRNRGLNSNMNYSSFNVQSM

Amyloid nucleation score, 0.025 ± 0.31:
GENIEYMF

Amyloid nucleation score, 0.4 ± 0.3:
GLYSDNSVYTLQMFIEGAHH

Amyloid nucleation score, 0.37 ± 0.17:
GFPPCSTRTIQLTWHSSNV

Amyloid nucleation score, 1.53 ± 0.13:
FTSGTMVFTRLFRSNQQWWS

Amyloid nucleation score, -0.585 ± 0.76:
GCNYTVSTYILRVSDFTYYM

Amyloid nucleation score, 2.2 ± 0.068:
GIVILLNYHPIRLF

Amyloid nucleation score, 1.52 ± 0.088:
FSRLFCNSALCIMRFVNTSS

Amyloid nucleation score, 0.231 ± 0.36:
GFTAGRFPCGSFWLGSCCWY

Amyloid nucleation score, -0.606 ± 0.93:
GCKRVVTTV

Amyloid nucleation score, -0.331 ± 0.9:
FWFYATLMGEQDK

Amyloid nucleation score, inactive:
FRLLLSKMAYFRADMTYDDF, FRNSGTNACIL, FRNWIWVLYEV, FRRSVK, FRSGSIDCSKLWILFY, FRSVVWFCGRVLQTGCCGLN, FRVNKRHQYEEHVLLENLVF, FSASSISDKIFSMEYCTTWV, FSCSNSLTMVFVEDFNHATY, FSDRRSINPELEF, FSFQQSWVSY, FSMSWTVDMKE, FSPVSQYWMKGFTYTGNRAR, FSQIPRYISNTKRWLWDYVN, FSVDYQHRCQGQYPYIWYSN, FSWRCCFHKNNDCAKTILMF, FSYAFWVKIIIVFRRFITRK, FTLFIQVV, FTMASLRIKDIFWLLTNLTW, FTQSTCSSHSVLFLMDVTRG, FTSNAESTLWTRPRNYRNVS, FTSVMKNNV, FTWRRFRVKSYYDYFASLGV, FVAHCWQSIY, FVDGVSYGTGTSSYKRTELY, FVDLIRLCMCFVRMSQSLRT, FVIVYAMCKLYLMEKMRLIS, FVLVHSFLECHYIHVTTERL, FVRDRFTIMFEWIAVLRLEL, FVRVALMYFVLKLTSRYKRN, FVSIWEHNSIVRRCGVRLDR, FVVIAYTEDTGDYRMVLTQW, FVVSLQYMCQSRYISPCTPI, FVYQYYV, FWFHLADMVECKCIDVLYYL, FWKCWAVPDVCFYVWRSGCF, FWLRNHFHSIAGICMFVGYW, FWLSHQNDDVYTFMPLSCSS, FWSDFYPHVLIRWFRSMVRS, FWTCTSSPVLMRWRRSGFNV, FWTSLPFVGHNNISCRLPTP, FYITFFECD, FYIYP, FYIYWLFPIIVSFDYVFSGL, FYKMVGVRYGC, FYKRLSMSMIWFLLYLCTDM, FYLFIVVRMVVLVTDVIVVG, FYLKLMSLVMSMDIMLTSLC, FYMSNDCP, FYSIPMLRLVVNNVLKLTAI, FYSSACVRPVVRYCCVMCDS, FYVLHPCAPFVFPHQTTNIT, FYVNPITEGMA, FYWGAFNPYFVLIGILAYYT, FYYNVRLRRAGWAYRITWTT, FYYRSFCRNGRRH, GAFSYEVFPTGRPLFKTGGH, GAHFWKNGVGRWLPRNC, GALSYKSKSWRS, GAQSSTEIAQFYKNGMTSNQ, GAYSDMTNKIWVPDNLLLL, GAYVKPNEWCEGFENSSFEV, GCARLAIMSKLPSCW, GCERMFIMVYSL, GCFILLNWVMQGKLAYTSLI, GCFLNNMLIGF, GCFVNN, GCKWWYSVFREWKSPLSGGV, GCKYSATTAHCADKSVPVTG, GCLQTIADWFNFSNMN, GCNEHI, GCRLPSWMYLVGELISFLSG, GCYIVM, GCYWSRLGVDHRMPMFIARD, GDLVLASAGYLVFGYLL, GDTRF, GEDIL, GERVSSESGRMPLPLCCYLV, GESLQLECLYFTFIKMYVSL, GEWSNLSNCTVNNVSRSGCS, GEYFCRNLNHID, GFFCIYWGHWGFSES, GFFSLYVVE, GFIEW, GFIQRKNQRGVKKCRESYYY, GFLGCRSETFWRVVVTKRKV, GFLKCVGVRLDDSRGVVCAT, GFMGFVTSHVKMTGNMCNEI, GFSYM, GFTFNGF, GFVIYLNVALLVRSNINRVC, GGDTPDDRVSNHCLYRHHHV, GGEGLVRQA, GGHENKKRYSSRTIGMCVHE, GGLRNNPKRVIRDEDVQVHM, GGSARCNRLCWYAVLDVLLL, GGSFREVVNRRTRVGEDP, GHQNRTP, GICWY, GIFCYQWWRTNPNESLAR, GIGNCYLMLQTKIFEWFFSE, GIKNMRSISKFGWVFLIYTV, GISMRRNFSLNKCCSAQSLF, GISSKRMFLSLSAFERSVYI, GISWILSVGGCTSRAWLWSW, GITIWLYNPYFL, GIVYKRVYRMWVHVAEAESR, GIYCMSVSWFNVDLDTTGNT, GIYRLGVNHGMFSCLM, GKARQSLHIGSSLLTFMA, GKLCYYSVYWESALNQPRSS, GKNSCCKLIVWDEVFGLKLC, GKPWGTGSLVLWYLYDEDCA, GKSIKGYGHSVFTVVLTVGY, GLALGWHFTC, GLCHMFGYDFTSMNCSSPGA, GLDLSSYPEL, GLFCLKFKPTQGVPRQKLL, GLGWNWDWR, GLNLR, GLPLEWDDSWNVKIVLLCWS, GLRVTH, GLSISFTTDFFLKVLSESAR, GLSLNYCVLGYGLLTM, GLTFCATRCRDWLEGWQY, GLVCFYTGLDVMLDTREFYR, GMAWLVGWLGLRLLTYFGYR, GMDKRNNYMSIIDWRVPHSI, GMFPVVRNGRWELRCPAVKW

Amyloid nucleation score, 1.43 ± 0.11:
FSGGCSVYSMQLFLS

Amyloid nucleation score, 0.175 ± 0.45:
GASMLGAIKGYSTSERISLD

Amyloid nucleation score, 1.64 ± 0.094:
GCSTINALCGHLDVVVCIAG

Source: the supplement of paper PMC12042874
